Data on 15 molecules can be found in patent publication US20200283478A1 (Genentech, published 2020).

One test concerns the target T1, His-tagged PCSK9Δhelix (human, UniProt Q8NBP7 31-152; Q8NBP7 168-692).
T1 construct: Human PCSK9 M1-Q692 with an engineered TEV site, cut by TEV protease; new N-terminus of the catalytic domain is S-A168; also called His-PCSK9Δhelix; not shown: His tag
Nature of the test: TR-FRET competition (PCSK9Δhelix/Ab20 assay); competitor Ab20. For orientation: TR-FRET usually uses a lanthanide donor and a delayed reading to cut background.

Test [1] deals with T2, His-tagged, full-length PCSK9 (human, UniProt Q8NBP7 31-692).
T2 construct: secreted PCSK9 is autocatalytically cleaved into prodomain and catalytic domain + CRD (from S153), which stay associated; also called His-PCSK9; proprotein convertase subtilisin/kexin type 9; not shown: His tag
T2 sequence (Q8NBP7 31-692 limits assumed): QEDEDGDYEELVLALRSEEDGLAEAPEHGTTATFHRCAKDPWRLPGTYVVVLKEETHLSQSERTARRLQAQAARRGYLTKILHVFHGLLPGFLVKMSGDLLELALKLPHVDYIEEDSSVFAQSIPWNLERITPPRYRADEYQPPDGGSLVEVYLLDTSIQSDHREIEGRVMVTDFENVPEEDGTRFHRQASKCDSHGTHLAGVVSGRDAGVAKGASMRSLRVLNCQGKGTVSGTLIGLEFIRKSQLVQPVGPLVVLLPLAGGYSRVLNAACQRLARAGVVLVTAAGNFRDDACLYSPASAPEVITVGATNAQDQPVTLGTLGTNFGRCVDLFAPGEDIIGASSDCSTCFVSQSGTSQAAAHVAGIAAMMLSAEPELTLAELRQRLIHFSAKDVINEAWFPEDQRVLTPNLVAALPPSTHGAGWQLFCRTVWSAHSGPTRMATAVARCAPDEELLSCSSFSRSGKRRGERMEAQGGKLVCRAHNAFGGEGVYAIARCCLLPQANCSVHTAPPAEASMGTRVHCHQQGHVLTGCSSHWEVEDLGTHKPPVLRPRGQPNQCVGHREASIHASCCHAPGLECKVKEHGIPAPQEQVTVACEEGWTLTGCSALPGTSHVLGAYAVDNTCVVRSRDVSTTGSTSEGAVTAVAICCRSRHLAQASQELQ
Nature of the test: TR-FRET competition (PCSK9/EGF(A) assay); competitor EGF(A)-Fc.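 Also: proximity signal from anti-His APC on PCSK9 paired with anti-Fc europium on the Fc ligand, read as normalized TR-FRET ratio across compound dilutions.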

Bridge positions count the residues as written; N and C are the ends.

T1 sequence (Q8NBP7 31-152, stated change not applied, chain 1 of 2): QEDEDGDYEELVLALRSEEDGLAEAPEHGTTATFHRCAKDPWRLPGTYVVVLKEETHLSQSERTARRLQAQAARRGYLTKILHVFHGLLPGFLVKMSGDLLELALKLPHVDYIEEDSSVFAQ
T1 sequence (Q8NBP7 other isoform, or with tags, fused parts or gaps mutant, chain 2 of 2): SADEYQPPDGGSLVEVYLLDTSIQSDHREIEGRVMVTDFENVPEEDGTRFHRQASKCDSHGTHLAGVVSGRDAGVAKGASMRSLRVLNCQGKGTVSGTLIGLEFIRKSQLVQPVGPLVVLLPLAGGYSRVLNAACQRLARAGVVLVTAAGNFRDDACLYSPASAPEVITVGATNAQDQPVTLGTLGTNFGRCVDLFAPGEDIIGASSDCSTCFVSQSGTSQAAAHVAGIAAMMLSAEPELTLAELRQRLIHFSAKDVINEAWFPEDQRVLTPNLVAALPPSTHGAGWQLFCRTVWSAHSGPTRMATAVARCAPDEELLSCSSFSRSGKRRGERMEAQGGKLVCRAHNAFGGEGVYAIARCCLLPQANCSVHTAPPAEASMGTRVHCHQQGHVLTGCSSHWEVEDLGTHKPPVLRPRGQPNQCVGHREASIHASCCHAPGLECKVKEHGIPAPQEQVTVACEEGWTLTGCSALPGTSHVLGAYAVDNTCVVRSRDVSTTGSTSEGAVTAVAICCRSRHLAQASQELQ
Protocol for His-tagged PCSK9Δhelix: Signal generation in the PCSK9 binding assays was dependent upon the binding interaction to bring into close proximity the His-tag on the PCSK9 and the Fc-tag on the ligand. Anti-His-APC was bound to the His-tag, and anti-Fc-europium was bound to the Fc-tag.
Compounds were solubilized and dilutions were prepared in DMSO. […] The plate was centrifuged to mix the well contents and allowed to incubate for 30 min. […] The normalized TR-FRET ratios were plotted as a function of the compound concentrations, and the IC₅₀ values were determined using a 4-parameter logistic regression.

B1: Compound 67 (Ac-CRLPWNLKRIGLPC-NH2) (peptide)
peptide: Ac-CRLPWNLKRIGLPC-NH2
modifications: disulfide 1-14
SMILES: CC[C@H](C)[C@@H]1NC(=O)[C@H](CCCNC(=N)N)NC(=O)[C@H](CCCCN)NC(=O)[C@H](CC(C)C)NC(=O)[C@H](CC(N)=O)NC(=O)[C@H](Cc2c[nH]c3ccccc23)NC(=O)[C@@H]2CCCN2C(=O)[C@H](CC(C)C)NC(=O)[C@H](CCCNC(=N)N)NC(=O)[C@@H](NC(C)=O)CSSC[C@@H](C(N)=O)NC(=O)[C@@H]2CCCN2C(=O)[C@H](CC(C)C)NC(=O)CNC1=O
Turning to B1, the IC50 – broadly, the point on the concentration scale where inhibition reaches its midpoint – with His-tagged PCSK9Δhelix is 0.699 µM; in test [1] it was greater than 50 µM.

B2: Compound 69 (Ac-CRLPWNLQRIGAPC-NH2) (peptide)
peptide: Ac-CRLPWNLQRIGAPC-NH2
modifications: disulfide 1-14
SMILES: CC[C@H](C)[C@@H]1NC(=O)[C@H](CCCNC(=N)N)NC(=O)[C@H](CCC(N)=O)NC(=O)[C@H](CC(C)C)NC(=O)[C@H](CC(N)=O)NC(=O)[C@H](Cc2c[nH]c3ccccc23)NC(=O)[C@@H]2CCCN2C(=O)[C@H](CC(C)C)NC(=O)[C@H](CCCNC(=N)N)NC(=O)[C@@H](NC(C)=O)CSSC[C@@H](C(N)=O)NC(=O)[C@@H]2CCCN2C(=O)[C@H](C)NC(=O)CNC1=O
With B2, the values for the concentration for half-maximal inhibition (IC50) (with His-tagged PCSK9Δhelix; in test [1]) were 6.64 µM and greater than 50 µM, respectively.

B3: Compound 81 (Ac-CRLPWNLQRIGGGC-NH2) (peptide)
peptide: Ac-CRLPWNLQRIGGGC-NH2
modifications: disulfide 1-14
SMILES: CC[C@H](C)[C@@H]1NC(=O)[C@H](CCCNC(=N)N)NC(=O)[C@H](CCC(N)=O)NC(=O)[C@H](CC(C)C)NC(=O)[C@H](CC(N)=O)NC(=O)[C@H](Cc2c[nH]c3ccccc23)NC(=O)[C@@H]2CCCN2C(=O)[C@H](CC(C)C)NC(=O)[C@H](CCCNC(=N)N)NC(=O)[C@@H](NC(C)=O)CSSC[C@@H](C(N)=O)NC(=O)CNC(=O)CNC(=O)CNC1=O
For the molecule B3, the results for the IC50 (in the test with His-tagged PCSK9Δhelix; in test [1]) were 28.8 µM and greater than 50 µM, respectively.

B4: Compound 74 (Ac-CRLPWNAQRIGLPC-NH2) (peptide)
peptide: Ac-CRLPWNAQRIGLPC-NH2
modifications: disulfide 1-14
SMILES: CC[C@H](C)[C@@H]1NC(=O)[C@H](CCCNC(=N)N)NC(=O)[C@H](CCC(N)=O)NC(=O)[C@H](C)NC(=O)[C@H](CC(N)=O)NC(=O)[C@H](Cc2c[nH]c3ccccc23)NC(=O)[C@@H]2CCCN2C(=O)[C@H](CC(C)C)NC(=O)[C@H](CCCNC(=N)N)NC(=O)[C@@H](NC(C)=O)CSSC[C@@H](C(N)=O)NC(=O)[C@@H]2CCCN2C(=O)[C@H](CC(C)C)NC(=O)CNC1=O
With B4, the IC50 was 49.5 µM in the test with His-tagged PCSK9Δhelix and greater than 50 µM in test [1].

B5: Compound 71 (Ac-CRLPWNLQRAGLPC-NH2) (peptide)
peptide: Ac-CRLPWNLQRAGLPC-NH2
modifications: disulfide 1-14
SMILES: CC(=O)N[C@H]1CSSC[C@@H](C(N)=O)NC(=O)[C@@H]2CCCN2C(=O)[C@H](CC(C)C)NC(=O)CNC(=O)[C@H](C)NC(=O)[C@H](CCCNC(=N)N)NC(=O)[C@H](CCC(N)=O)NC(=O)[C@H](CC(C)C)NC(=O)[C@H](CC(N)=O)NC(=O)[C@H](Cc2c[nH]c3ccccc23)NC(=O)[C@@H]2CCCN2C(=O)[C@H](CC(C)C)NC(=O)[C@H](CCCNC(=N)N)NC1=O
In the case of B5, the values for the IC50 (with His-tagged PCSK9Δhelix; in test [1]) were 49.5 µM and greater than 50 µM, respectively.

B6: Compound 76 (Ac-CRLPANLQRIGLPC-NH2) (peptide)
peptide: Ac-CRLPANLQRIGLPC-NH2
modifications: disulfide 1-14
SMILES: CC[C@H](C)[C@@H]1NC(=O)[C@H](CCCNC(=N)N)NC(=O)[C@H](CCC(N)=O)NC(=O)[C@H](CC(C)C)NC(=O)[C@H](CC(N)=O)NC(=O)[C@H](C)NC(=O)[C@@H]2CCCN2C(=O)[C@H](CC(C)C)NC(=O)[C@H](CCCNC(=N)N)NC(=O)[C@@H](NC(C)=O)CSSC[C@@H](C(N)=O)NC(=O)[C@@H]2CCCN2C(=O)[C@H](CC(C)C)NC(=O)CNC1=O
In the case of B6, the concentration for half-maximal inhibition (IC50) was 49.5 µM with His-tagged PCSK9Δhelix and greater than 50 µM in test [1].

B7: Compound 70 (Ac-CRLPWNLQRIALPC-NH2) (peptide)
peptide: Ac-CRLPWNLQRIALPC-NH2
modifications: disulfide 1-14
SMILES: CC[C@H](C)[C@@H]1NC(=O)[C@H](CCCNC(=N)N)NC(=O)[C@H](CCC(N)=O)NC(=O)[C@H](CC(C)C)NC(=O)[C@H](CC(N)=O)NC(=O)[C@H](Cc2c[nH]c3ccccc23)NC(=O)[C@@H]2CCCN2C(=O)[C@H](CC(C)C)NC(=O)[C@H](CCCNC(=N)N)NC(=O)[C@@H](NC(C)=O)CSSC[C@@H](C(N)=O)NC(=O)[C@@H]2CCCN2C(=O)[C@H](CC(C)C)NC(=O)[C@H](C)NC1=O
For the molecule B7, the half-inhibitory concentration (IC50) in the test with His-tagged PCSK9Δhelix is 7.26 µM; in test [1], greater than 50 µM.

B8: Compound 75 (Ac-CRLPWALQRIGLPC-NH2) (peptide)
peptide: Ac-CRLPWALQRIGLPC-NH2
modifications: disulfide 1-14
SMILES: CC[C@H](C)[C@@H]1NC(=O)[C@H](CCCNC(=N)N)NC(=O)[C@H](CCC(N)=O)NC(=O)[C@H](CC(C)C)NC(=O)[C@H](C)NC(=O)[C@H](Cc2c[nH]c3ccccc23)NC(=O)[C@@H]2CCCN2C(=O)[C@H](CC(C)C)NC(=O)[C@H](CCCNC(=N)N)NC(=O)[C@@H](NC(C)=O)CSSC[C@@H](C(N)=O)NC(=O)[C@@H]2CCCN2C(=O)[C@H](CC(C)C)NC(=O)CNC1=O
For the molecule B8, the half-maximal inhibitory concentration (IC50) with His-tagged PCSK9Δhelix is 49.5 µM; in test [1] it was greater than 50 µM.

B9: Compound 72 (Ac-CRLPWNLQAIGLPC-NH2) (peptide)
peptide: Ac-CRLPWNLQAIGLPC-NH2
modifications: disulfide 1-14
SMILES: CC[C@H](C)[C@@H]1NC(=O)[C@H](C)NC(=O)[C@H](CCC(N)=O)NC(=O)[C@H](CC(C)C)NC(=O)[C@H](CC(N)=O)NC(=O)[C@H](Cc2c[nH]c3ccccc23)NC(=O)[C@@H]2CCCN2C(=O)[C@H](CC(C)C)NC(=O)[C@H](CCCNC(=N)N)NC(=O)[C@@H](NC(C)=O)CSSC[C@@H](C(N)=O)NC(=O)[C@@H]2CCCN2C(=O)[C@H](CC(C)C)NC(=O)CNC1=O
Consider B9, for which the IC50 with His-tagged PCSK9Δhelix is 39.6 µM; in test [1], greater than 50 µM.

B10: Compound 68 (Ac-CRLPWNLQRIGLAC-NH2) (peptide)
peptide: Ac-CRLPWNLQRIGLAC-NH2
modifications: disulfide 1-14
SMILES: CC[C@H](C)[C@@H]1NC(=O)[C@H](CCCNC(=N)N)NC(=O)[C@H](CCC(N)=O)NC(=O)[C@H](CC(C)C)NC(=O)[C@H](CC(N)=O)NC(=O)[C@H](Cc2c[nH]c3ccccc23)NC(=O)[C@@H]2CCCN2C(=O)[C@H](CC(C)C)NC(=O)[C@H](CCCNC(=N)N)NC(=O)[C@@H](NC(C)=O)CSSC[C@@H](C(N)=O)NC(=O)[C@H](C)NC(=O)[C@H](CC(C)C)NC(=O)CNC1=O
Regarding B10, the half-inhibitory concentration (IC50) with His-tagged PCSK9Δhelix was 0.939 µM; in test [1] it was greater than 50 µM.

B11: Compound 80 (Ac-CRLPWNLQRIGLGC-NH2) (peptide)
peptide: Ac-CRLPWNLQRIGLGC-NH2
modifications: disulfide 1-14
SMILES: CC[C@H](C)[C@@H]1NC(=O)[C@H](CCCNC(=N)N)NC(=O)[C@H](CCC(N)=O)NC(=O)[C@H](CC(C)C)NC(=O)[C@H](CC(N)=O)NC(=O)[C@H](Cc2c[nH]c3ccccc23)NC(=O)[C@@H]2CCCN2C(=O)[C@H](CC(C)C)NC(=O)[C@H](CCCNC(=N)N)NC(=O)[C@@H](NC(C)=O)CSSC[C@@H](C(N)=O)NC(=O)CNC(=O)[C@H](CC(C)C)NC(=O)CNC1=O
Regarding B11, the values for the IC50 (in the test with His-tagged PCSK9Δhelix; in test [1]) were 0.65 µM and greater than 50 µM, respectively.

B12: Compound 73 (Ac-CRLPWNLARIGLPC-NH2) (peptide)
peptide: Ac-CRLPWNLARIGLPC-NH2
modifications: disulfide 1-14
SMILES: CC[C@H](C)[C@@H]1NC(=O)[C@H](CCCNC(=N)N)NC(=O)[C@H](C)NC(=O)[C@H](CC(C)C)NC(=O)[C@H](CC(N)=O)NC(=O)[C@H](Cc2c[nH]c3ccccc23)NC(=O)[C@@H]2CCCN2C(=O)[C@H](CC(C)C)NC(=O)[C@H](CCCNC(=N)N)NC(=O)[C@@H](NC(C)=O)CSSC[C@@H](C(N)=O)NC(=O)[C@@H]2CCCN2C(=O)[C@H](CC(C)C)NC(=O)CNC1=O
With B12, the half-inhibitory concentration (IC50) with His-tagged PCSK9Δhelix was 0.915 µM; in test [1], greater than 50 µM.

B13: Compound 78 (Ac-CRAPWNLQRIGLPC-NH2) (peptide)
peptide: Ac-CRAPWNLQRIGLPC-NH2
modifications: disulfide 1-14
SMILES: CC[C@H](C)[C@@H]1NC(=O)[C@H](CCCNC(=N)N)NC(=O)[C@H](CCC(N)=O)NC(=O)[C@H](CC(C)C)NC(=O)[C@H](CC(N)=O)NC(=O)[C@H](Cc2c[nH]c3ccccc23)NC(=O)[C@@H]2CCCN2C(=O)[C@H](C)NC(=O)[C@H](CCCNC(=N)N)NC(=O)[C@@H](NC(C)=O)CSSC[C@@H](C(N)=O)NC(=O)[C@@H]2CCCN2C(=O)[C@H](CC(C)C)NC(=O)CNC1=O
Consider B13, for which the figures for the 50% inhibitory concentration (IC50) (in the test with His-tagged PCSK9Δhelix; in test [1]) were 5.56 µM and greater than 50 µM, respectively.

B14: Compound 79 (Ac-CALPWNLQRIGLPC-NH2) (peptide)
peptide: Ac-CALPWNLQRIGLPC-NH2
modifications: disulfide 1-14
SMILES: CC[C@H](C)[C@@H]1NC(=O)[C@H](CCCNC(=N)N)NC(=O)[C@H](CCC(N)=O)NC(=O)[C@H](CC(C)C)NC(=O)[C@H](CC(N)=O)NC(=O)[C@H](Cc2c[nH]c3ccccc23)NC(=O)[C@@H]2CCCN2C(=O)[C@H](CC(C)C)NC(=O)[C@H](C)NC(=O)[C@@H](NC(C)=O)CSSC[C@@H](C(N)=O)NC(=O)[C@@H]2CCCN2C(=O)[C@H](CC(C)C)NC(=O)CNC1=O
As for B14, the results for the IC50 (with His-tagged PCSK9Δhelix; in test [1]) were 1.53 µM and greater than 50 µM, respectively.

B15: Compound 77 (Ac-CRLAWNLQRIGLPC-NH2) (peptide)
peptide: Ac-CRLAWNLQRIGLPC-NH2
modifications: disulfide 1-14
SMILES: CC[C@H](C)[C@@H]1NC(=O)[C@H](CCCNC(=N)N)NC(=O)[C@H](CCC(N)=O)NC(=O)[C@H](CC(C)C)NC(=O)[C@H](CC(N)=O)NC(=O)[C@H](Cc2c[nH]c3ccccc23)NC(=O)[C@H](C)NC(=O)[C@H](CC(C)C)NC(=O)[C@H](CCCNC(=N)N)NC(=O)[C@@H](NC(C)=O)CSSC[C@@H](C(N)=O)NC(=O)[C@@H]2CCCN2C(=O)[C@H](CC(C)C)NC(=O)CNC1=O
Regarding B15, the IC50 was 6.02 µM with His-tagged PCSK9Δhelix and greater than 50 µM in test [1].
